Experimental data: publication PMC11626198, “Molecular insights into the interaction between a disordered protein and a folded RNA”

B1: FAM-TAR (structured_RNA)
RNA: GGCAGAUCUGAGCCUGGGAGCUCUCUGCC
B2: FAM-(rU)30 (ssRNA)
RNA: UUUUUUUUUUUUUUUUUUUUUUUUUUUUUU

Biological target: T1, SERF (Small ERDK-Rich Factor) (Saccharomyces cerevisiae, UniProt Q3E7B7)
T1 sequence: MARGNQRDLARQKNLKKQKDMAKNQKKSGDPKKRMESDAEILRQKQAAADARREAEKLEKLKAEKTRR
Test: fluorescence anisotropy; 1:1 model, KD,app; Anisotropy buffer not given in the material; NMR at 27 C; native IM-MS in 100 mM ammonium acetate pH 7.5
Settings: protein: recombinant, tags: His6-SUMO removed by ULP1 (scarless)

Binder | Kd (hairpin with UCU bulge and hexanucleotide loop) [nM] | Kd (single strand) [nM]
B1 | 670 ± 40 | –
B2 | – | 1900 ± 200
